The record followed here is US20200087363A1 (IMMATICS BIOTECHNOLOGIES, published 2020).

Some results are limits rather than exact numbers.

The target in this test is T1, HLA-B*44:05 (human).
T1 construct: also called peptide-receptive MHC class I molecule
As to the kind of experiment: UV peptide exchange, anti-b2m ELISA. In outline:
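Peptide-receptive HLA-B*44:05 monomers after UV-induced exchange were diluted 100-fold and captured on streptavidin-coated plates for 1 h at 37 °C. Bound complexes were detected with 2 µg/ml HRP-anti-β2m (1 h, 37 °C) and TMB, read at 450 nm. β2m signal reflects peptide-stabilized complex yield.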
A general note: In an ELISA, binding on a coated surface is turned into a signal by an enzyme label.

In the case of LEHPFLVNLW, the peptide exchange yield is greater than 75%. The result for AEAMGKFKQCF reads 50 to 75%; that for EESDYITHY, 50 to 75%. For EEYKFPSLF, the peptide exchange yield lay in the range of 50 to 75%. With TEFAVKLKI the figure was 50 to 75%; with KEKVPGITI, 50 to 75%; with EECGKAFKKF, 50 to 75%. The result for IEQADWPEI reads 20 to 50%. For LDGIPTAGW, the peptide exchange yield is 50 to 75%.

For GEYNKHAQLW, the peptide exchange yield was greater than 75%. The result for EENTGKTYF reads 50 to 75%. The result for TELGLFGVW reads greater than 75%; that for VENIFHNF, 20 to 50%. The result for TEFHGGLHY reads 50 to 75%. Take NESGKAFNY: the peptide exchange yield is greater than 75%. With SESDGIEQL the figure was 50 to 75%; with TEVSVLLLTF, 50 to 75%. With REDPIVYEI the figure was 20 to 50%. KELEERMLHW gave a peptide exchange yield greater than 75%. The result for DEQRRQNVAY reads 20 to 50%; that for TESIGAQIY, 50 to 75%; that for REVDPDDSYVF, 50 to 75%. With NEFRRKLTF the figure was 50 to 75%; with EEVLLANALW, 50 to 75%. With EECDKAYSF the figure was 20 to 50%; with EECGKAFRVF, 50 to 75%. With EECGKAFSVF, the peptide exchange yield was 50 to 75%. With DEMENLLTY the figure was greater than 75%; with GEVQENYKL, 50 to 75%; with SEILRVTLY, 50 to 75%. In turn, EDASLMGLY displayed a peptide exchange yield of 20 to 50%. The result for SETILAVGL reads 50 to 75%. The result for NEAEWQEIL reads 50 to 75%.

VEIVTIPSL yielded a peptide exchange yield of 50 to 75%. With SELNPLALY the figure was 50 to 75%.

Molecule MELLFLDTF showed a peptide exchange yield of 20 to 50%. The result for QELFLQEVRM reads 50 to 75%. With SEVEYINKY the figure was 50 to 75%; with IETSSEYFNF, 50 to 75%. With AENRVGKMEA the figure was 20 to 50%; with AEIIRYIF, 10 to 20%; with EECDKAFHF, 50 to 75%. In turn, EEMERDLDMY came in with a peptide exchange yield of 50 to 75%. The result for AEDARGWTA reads 20 to 50%; that for DEVRFFKGNKY, 20 to 50%.

AEDFVWAQW returned a peptide exchange yield greater than 75%. For NEIGQELTGQEW, the peptide exchange yield is greater than 75%. The result for HEATFGEKRF reads 50 to 75%. As for QELMAFSFAGL, the peptide exchange yield was greater than 75%.
